The text below walks through data of patent publication US20190071490A1 (BETH ISRAEL DEACONESS MEDICAL CENTER, published 2019).

Assay [1] addresses T1, rat α-CGRP (1-37) (rat, C-terminal amide; N-terminal biotin when captured on the SA chip).
T1 construct: also called rat α (1-37); α-rat
T1 peptide: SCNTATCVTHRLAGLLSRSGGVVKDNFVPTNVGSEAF
Put plainly: Biacore, 37°C, Fab over N-biotinylated CGRP on SA chip, high-resolution two-part experiment. As to the method: (§1) Biacore assay for affinity determination. […] All Biacore assays were conducted in HBS-EP running buffer (10 mM HEPES pH 7.4, 150 mM NaCl, 3 mM EDTA, 0.005% v/v polysorbate P20). CGRP surfaces were prepared by diluting the N-biotinylated CGRP to a concentration of less than 0.001 mg/mL into HBS-EP buffer and injecting it across the SA sensor chip using variable contact times. […] Samples were typically injected for 1 minute at 100 μL/min and dissociation times of at least 10 minutes were allowed. […] An entire titration series (typically generated in duplicate) was fit globally to a 1:1 Langmuir binding model using the BIAevaluation program. This returned a unique pair of association and dissociation kinetic rate constants (respectively, kₒₙ and koff) for each binding interaction, whose ratio gave the equilibrium dissociation constant (KD=koff/kₒₙ).
(§2) High-resolution analysis of binding interactions with extremely slow off rates. […] The protocol described above was used with the following modifications.

In assay [2] the target is T2, human α-CGRP 1-37 (WT) (human, C-terminal amide; N-terminal biotin when captured on the SA chip; 125I-labelled in the radioligand assay).
T2 construct: also called α-human
T2 peptide: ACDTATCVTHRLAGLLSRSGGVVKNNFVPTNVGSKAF
The assay is described as above. As for the experimental part:
as §1, §2

Assay [3] deals with T3, Human amylin (1-37) (human, C-terminal amide).
T3 peptide: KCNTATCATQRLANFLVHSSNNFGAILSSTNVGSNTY
Kind of assay: Biacore competition: 50 nM G1 Fab with 10 µM peptide over human α-CGRP on chip. From the text:
(§3) Y axis represents percentage of binding blocked by the presence of the competing peptide compared with the binding in the absence of the competing peptide.
(§4) All these peptides are amidated at the C-terminus.
(In general: In SPR one partner is held on a chip, and binding of the other changes the refractive index at the surface.)

For assay [4], the target named is T4, human α-CGRP 19-36 (human).
T4 construct: also called 19-36-COOH; peptide fragment 19-36
T4 peptide: SGGVVKNNFVPTNVGSKA-OH
Described as above.
Text: as §3, §4

In assay [5] the target is T5, Human adrenomedullin (1-52) (human, C-terminal amide).
T5 peptide: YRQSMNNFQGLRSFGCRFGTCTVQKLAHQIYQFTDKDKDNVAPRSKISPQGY
The description is as above.
Text: as §3, §4

For assay [6], the target named is T6, Human calcitonin (1-32) (human, C-terminal amide).
T6 peptide: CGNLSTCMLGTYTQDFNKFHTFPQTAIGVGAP
The description is as above.
Text: as §3, §4

For assay [7], the target named is T7, human α-CGRP 1-19-COOH (human, ends and bridges not checked).
T7 peptide: ACDTATCVTHRLAGLLSRS-OH
The description is as above.

For assay [8], the target named is T8, human α-CGRP 1-13-COOH (human, ends and bridges not checked).
T8 peptide: ACDTATCVTHRLA-OH
The assay is described as above.

The target in assay [9] is T9, human α-CGRP F37A (25-37) (human, not fully specified).
T9 construct: the entry already carries F37A
T9 peptide: NNFVPTNVGSKAA-NH2
Put plainly: Biacore, 37°C, G1 Fab titrated over N-biotinylated peptide on chip. As for the experimental part:
(§5) All Biacore assays were conducted in HBS-EP running buffer (10 mM HEPES pH 7.4, 150 mM NaCl, 3 mM EDTA, 0.005% v/v polysorbate P20). CGRP surfaces were prepared by diluting the N-biotinylated CGRP to a concentration of less than 0.001 mg/mL into HBS-EP buffer and injecting it across the SA sensor chip using variable contact times. […] Samples were typically injected for 1 minute at 100 μL/min and dissociation times of at least 10 minutes were allowed. […] An entire titration series (typically generated in duplicate) was fit globally to a 1:1 Langmuir binding model using the BIAevaluation program. This returned a unique pair of association and dissociation kinetic rate constants (respectively, kₒₙ and koff) for each binding interaction, whose ratio gave the equilibrium dissociation constant (KD=koff/kₒₙ).

Assay [10] concerns the target T10, human α-CGRP fragment 25-37 (human, not fully specified).
T10 peptide: NNFVPTNVGSKAF-NH2
The assay is described as above. As for the experimental part:
as §5

Assay [11] addresses T11, human α-CGRP fragment 19-37 (human, not fully specified).
T11 peptide: SGGVVKNNFVPTNVGSKAF-NH2
The assay is described as above. As for the experimental part: as §5

The target in assay [12] is T12, human α-CGRP F27A (25-37) (human, not fully specified).
T12 construct: the entry already carries F27A
T12 peptide: NNAVPTNVGSKAF-NH2
The description is as above. As to the method: as §5

The target in assay [13] is T13, human α-CGRP G33A (25-37) (human, not fully specified).
T13 construct: the entry already carries G33A
T13 peptide: NNFVPTNVASKAF-NH2
The assay is described as above. As to the method: as §5

In assay [14] the target is T14, human α-CGRP S34A (25-37) (human, not fully specified).
T14 construct: the entry already carries S34A
T14 peptide: NNFVPTNVGAKAF-NH2
The assay is described as above. As for the experimental part:
as §5

Assay [15] addresses T15, human α-CGRP K35M (19-37) (human, also: N-terminal biotin when on the chip).
T15 construct: the entry already carries K35M
T15 peptide: SGGVVKNNFVPTNVGSMAF-NH2
The assay is described as above. As for the experimental part:
as §5

Assay [16] deals with T16, human α-CGRP K35E (19-37) (human, also: N-terminal biotin when on the chip).
T16 construct: the entry already carries K35E
T16 peptide: SGGVVKNNFVPTNVGSEAF-NH2
The description is as above. As to the method:
as §5

Assay [17] addresses T2, human α-CGRP 1-37 (WT). The description is as above. As to the method:
as §5

Ends that are not written are not given here.

B1: antibody G1 Fab fragment (Fab, V domains shown)
VH: EVQLVESGGGLVQPGGSLRLSCAASGFTFSNYWISWVRQAPGKGLEWVAEIRSESDASATHYAEAVKGRFTISRDNAKNSLYLQMNSLRAEDTAVYYCLAYFDYGLAIQNYWGQGTLVTVSS
VL: EIVLTQSPATLSLSPGERATLSCKASKRVTTYVSWYQQKPGQAPRLLIYGASNRYLGIPARFSGSGSGTDFTLTISSLEPEDFAVYYCSQSYNYPYTFGQGTKLEIK
With B1, the Kd – broadly, the free concentration of one partner at which half of the binding sites on the other are occupied at equilibrium, for simple one-to-one binding – in [1] was found to be 2.57 nM; in [2], 0.063 nM; in assay [9], 95 nM; in assay [10], 0.28 nM; in assay [11], 0.16 nM; in assay [12] it was 0.38 nM. In addition, the Kd in assay [13] was determined as 141 nM; in assay [14] it was 3.04 nM; in assay [15], 0.51 nM; in [16] it was 9.73 nM; in assay [17] it was 0.16 nM. In addition, the binding result in assay [3], in assay [4], in assay [5], in [6], in [7] and in [8] was “no binding (tested: 10 µM peptide)” in each case.
